Each block holds one binder with its values, some of them ahead of it. Numbered stars: 1 amine (or outer) side, 2 acyl side, 3 side chain; on linkers, the order of the positions; unused ones are H or OH. Bridge positions count the residues as written; N and C are the ends. Side chains are listed from the residue outwards. Ends that are not written are not given here. * marks the point of attachment. C20 diacid = O=C(O)CCCCCCCCCCCCCCCCCCC(=O)*; γGlu = O=C(O)[C@H](CCC(=O)[*:2])N[*:1]
Assays:
[1] = target: T1, human calcitonin receptor (human, UniProt P30988 25-474); assay: SPA radioligand competition (125I-calcitonin), membranes of BHK cells with human calcitonin receptor
T1 construct: whole, on cells; Assay used cell membranes of the transfected BHK cells; also called hCTR; hCT
T1 sequence (looked up): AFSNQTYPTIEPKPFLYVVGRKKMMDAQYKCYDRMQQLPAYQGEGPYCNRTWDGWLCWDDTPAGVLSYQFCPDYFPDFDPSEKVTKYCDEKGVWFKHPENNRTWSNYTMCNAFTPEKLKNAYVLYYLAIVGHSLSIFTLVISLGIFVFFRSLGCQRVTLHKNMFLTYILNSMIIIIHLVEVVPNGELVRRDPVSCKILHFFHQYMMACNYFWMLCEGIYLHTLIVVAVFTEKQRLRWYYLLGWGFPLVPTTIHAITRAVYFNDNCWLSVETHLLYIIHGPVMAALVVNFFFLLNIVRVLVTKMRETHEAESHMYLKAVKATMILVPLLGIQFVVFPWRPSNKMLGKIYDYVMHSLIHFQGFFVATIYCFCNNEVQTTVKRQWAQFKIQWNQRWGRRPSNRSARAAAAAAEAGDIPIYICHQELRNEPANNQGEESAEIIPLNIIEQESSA
Summary of the method: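 BHK hCTR membranes 35 ng/μL + SPA beads 0.05 mg/well; buffer 50 mM Hepes pH 7.4, 1 mM CaCl2, 5 mM MgCl₂, 0.1% OA, 0.02% Tween20. 120 min, 25° C., shaking. Scintillation count; IC50 by one-site binding competition.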

[2] = target: T1, human calcitonin receptor; assay: ratio IC50 hCTR / IC50 hAmylin-R of the two SPA competition assays; reference: human amylin receptor
Summary of the method: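 Scintillation proximity competition binding on cell membranes at 35 ng/μL with SPA beads, in 50 mM Hepes pH 7.4, 1 mM CaCl2, 5 mM MgCl₂, 0.1% OA, 0.02% Tween20. Incubated 120 min at 25° C with shaking. IC₅₀ from one-site competition fit.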

IC50 [1]: 19.9 nM
Ratio hCT/hAmylin binding [2]: 20
B1: N^α1-[(4S)-4-carboxy-4-(19-carboxynonadecanoylamino)butanoyl]-[Glu14,Arg17,Pro21,Pro25,Pro28,Pro29]-h-amylin (peptide)
peptide: {C20 diacid-γGlu}-KCNTATCATQRLAEFLRHSSPNFGPILPPTNVGSNTY-NH2
modifications: disulfide 2-7
SMILES: CC[C@H](C)[C@H](NC(=O)[C@@H]1CCCN1C(=O)CNC(=O)[C@H](Cc1ccccc1)NC(=O)[C@H](CC(N)=O)NC(=O)[C@@H]1CCCN1C(=O)[C@H](CO)NC(=O)[C@H](CO)NC(=O)[C@H](Cc1c[nH]cn1)NC(=O)[C@H](CCCNC(=N)N)NC(=O)[C@H](CC(C)C)NC(=O)[C@H](Cc1ccccc1)NC(=O)[C@H](CCC(=O)O)NC(=O)[C@H](C)NC(=O)[C@H](CC(C)C)NC(=O)[C@H](CCCNC(=N)N)NC(=O)[C@H](CCC(N)=O)NC(=O)[C@@H](NC(=O)[C@H](C)NC(=O)[C@@H]1CSSC[C@H](NC(=O)[C@H](CCCCN)NC(=O)CC[C@H](NC(=O)CCCCCCCCCCCCCCCCCCC(=O)O)C(=O)O)C(=O)N[C@@H](CC(N)=O)C(=O)N[C@@H]([C@@H](C)O)C(=O)N[C@@H](C)C(=O)N[C@@H]([C@@H](C)O)C(=O)N1)[C@@H](C)O)C(=O)N[C@@H](CC(C)C)C(=O)N1CCC[C@H]1C(=O)N1CCC[C@H]1C(=O)N[C@H](C(=O)N[C@@H](CC(N)=O)C(=O)N[C@H](C(=O)NCC(=O)N[C@@H](CO)C(=O)N[C@@H](CC(N)=O)C(=O)N[C@H](C(=O)N[C@@H](Cc1ccc(O)cc1)C(N)=O)[C@@H](C)O)C(C)C)[C@@H](C)O
notes: Synthetic analogue; also called compound 6

IC50 [1]: 34.5 nM
Ratio hCT/hAmylin binding [2]: 41.3
B2: N^ε1-[(4S)-4-carboxy-4-(19-carboxynonadecanoylamino)butanoyl]-[Arg17,Pro21,Pro27,Glu35]-h-amylin (peptide)
peptide: K([γGlu-C20 diacid])CNTATCATQRLANFLRHSSPNFGAIPSSTNVGSETY-NH2
modifications: disulfide 2-7; N-terminus assumed
SMILES: CC[C@H](C)[C@H](NC(=O)[C@H](C)NC(=O)CNC(=O)[C@H](Cc1ccccc1)NC(=O)[C@H](CC(N)=O)NC(=O)[C@@H]1CCCN1C(=O)[C@H](CO)NC(=O)[C@H](CO)NC(=O)[C@H](Cc1c[nH]cn1)NC(=O)[C@H](CCCNC(=N)N)NC(=O)[C@H](CC(C)C)NC(=O)[C@H](Cc1ccccc1)NC(=O)[C@H](CC(N)=O)NC(=O)[C@H](C)NC(=O)[C@H](CC(C)C)NC(=O)[C@H](CCCNC(=N)N)NC(=O)[C@H](CCC(N)=O)NC(=O)[C@@H](NC(=O)[C@H](C)NC(=O)[C@@H]1CSSC[C@H](NC(=O)[C@@H](N)CCCCNC(=O)CC[C@H](NC(=O)CCCCCCCCCCCCCCCCCCC(=O)O)C(=O)O)C(=O)N[C@@H](CC(N)=O)C(=O)N[C@@H]([C@@H](C)O)C(=O)N[C@@H](C)C(=O)N[C@@H]([C@@H](C)O)C(=O)N1)[C@@H](C)O)C(=O)N1CCC[C@H]1C(=O)N[C@@H](CO)C(=O)N[C@@H](CO)C(=O)N[C@H](C(=O)N[C@@H](CC(N)=O)C(=O)N[C@H](C(=O)NCC(=O)N[C@@H](CO)C(=O)N[C@@H](CCC(=O)O)C(=O)N[C@H](C(=O)N[C@@H](Cc1ccc(O)cc1)C(N)=O)[C@@H](C)O)C(C)C)[C@@H](C)O
notes: Synthetic analogue; also called compound 27

IC50 [1]: 48.8 nM
Ratio hCT/hAmylin binding [2]: 50.3
B3: N^ε1-[(4S)-4-carboxy-4-(19-carboxynonadecanoylamino)butanoyl]-[Arg17,Pro21,Pro27,Lys35]-h-amylin (peptide)
peptide: K([γGlu-C20 diacid])CNTATCATQRLANFLRHSSPNFGAIPSSTNVGSKTY-NH2
modifications: disulfide 2-7; N-terminus assumed
SMILES: CC[C@H](C)[C@H](NC(=O)[C@H](C)NC(=O)CNC(=O)[C@H](Cc1ccccc1)NC(=O)[C@H](CC(N)=O)NC(=O)[C@@H]1CCCN1C(=O)[C@H](CO)NC(=O)[C@H](CO)NC(=O)[C@H](Cc1c[nH]cn1)NC(=O)[C@H](CCCNC(=N)N)NC(=O)[C@H](CC(C)C)NC(=O)[C@H](Cc1ccccc1)NC(=O)[C@H](CC(N)=O)NC(=O)[C@H](C)NC(=O)[C@H](CC(C)C)NC(=O)[C@H](CCCNC(=N)N)NC(=O)[C@H](CCC(N)=O)NC(=O)[C@@H](NC(=O)[C@H](C)NC(=O)[C@@H]1CSSC[C@H](NC(=O)[C@@H](N)CCCCNC(=O)CC[C@H](NC(=O)CCCCCCCCCCCCCCCCCCC(=O)O)C(=O)O)C(=O)N[C@@H](CC(N)=O)C(=O)N[C@@H]([C@@H](C)O)C(=O)N[C@@H](C)C(=O)N[C@@H]([C@@H](C)O)C(=O)N1)[C@@H](C)O)C(=O)N1CCC[C@H]1C(=O)N[C@@H](CO)C(=O)N[C@@H](CO)C(=O)N[C@H](C(=O)N[C@@H](CC(N)=O)C(=O)N[C@H](C(=O)NCC(=O)N[C@@H](CO)C(=O)N[C@@H](CCCCN)C(=O)N[C@H](C(=O)N[C@@H](Cc1ccc(O)cc1)C(N)=O)[C@@H](C)O)C(C)C)[C@@H](C)O
notes: Synthetic analogue; also called compound 35

IC50 [1]: 6.3 nM
Ratio hCT/hAmylin binding [2]: 15.7
B4: N{Alpha-1}-[(4S)-4-carboxy-4-(19-carboxynonadecanoylamino)butanoyl]-[Glu14,Arg17,Pro21,Pro27,Lys34]-h-amylin (peptide)
peptide: {C20 diacid-γGlu}-KCNTATCATQRLAEFLRHSSPNFGAIPSSTNVGKNTY-NH2
modifications: disulfide 2-7
SMILES: CC[C@H](C)[C@H](NC(=O)[C@H](C)NC(=O)CNC(=O)[C@H](Cc1ccccc1)NC(=O)[C@H](CC(N)=O)NC(=O)[C@@H]1CCCN1C(=O)[C@H](CO)NC(=O)[C@H](CO)NC(=O)[C@H](Cc1c[nH]cn1)NC(=O)[C@H](CCCNC(=N)N)NC(=O)[C@H](CC(C)C)NC(=O)[C@H](Cc1ccccc1)NC(=O)[C@H](CCC(=O)O)NC(=O)[C@H](C)NC(=O)[C@H](CC(C)C)NC(=O)[C@H](CCCNC(=N)N)NC(=O)[C@H](CCC(N)=O)NC(=O)[C@@H](NC(=O)[C@H](C)NC(=O)[C@@H]1CSSC[C@H](NC(=O)[C@H](CCCCN)NC(=O)CC[C@H](NC(=O)CCCCCCCCCCCCCCCCCCC(=O)O)C(=O)O)C(=O)N[C@@H](CC(N)=O)C(=O)N[C@@H]([C@@H](C)O)C(=O)N[C@@H](C)C(=O)N[C@@H]([C@@H](C)O)C(=O)N1)[C@@H](C)O)C(=O)N1CCC[C@H]1C(=O)N[C@@H](CO)C(=O)N[C@@H](CO)C(=O)N[C@H](C(=O)N[C@@H](CC(N)=O)C(=O)N[C@H](C(=O)NCC(=O)N[C@@H](CCCCN)C(=O)N[C@@H](CC(N)=O)C(=O)N[C@H](C(=O)N[C@@H](Cc1ccc(O)cc1)C(N)=O)[C@@H](C)O)C(C)C)[C@@H](C)O
notes: Synthetic analogue; also called compound 36

IC50 [1]: 32.5 nM
Ratio hCT/hAmylin binding [2]: 27.6
B5: N^ε1-[(4S)-4-carboxy-4-[[(4S)-4-carboxy-4-(19-carboxynonadecanoylamino)butanoyl]amino]butanoyl]-[Asp14,Arg17,Pro21,Pro26,Asp35]-h-amylin (peptide)
peptide: K([γGlu-γGlu-C20 diacid])CNTATCATQRLADFLRHSSPNFGAPLSSTNVGSDTY-NH2
modifications: disulfide 2-7; N-terminus assumed
SMILES: CC(C)C[C@H](NC(=O)[C@H](CCCNC(=N)N)NC(=O)[C@H](CCC(N)=O)NC(=O)[C@@H](NC(=O)[C@H](C)NC(=O)[C@@H]1CSSC[C@H](NC(=O)[C@@H](N)CCCCNC(=O)CC[C@H](NC(=O)CC[C@H](NC(=O)CCCCCCCCCCCCCCCCCCC(=O)O)C(=O)O)C(=O)O)C(=O)N[C@@H](CC(N)=O)C(=O)N[C@@H]([C@@H](C)O)C(=O)N[C@@H](C)C(=O)N[C@@H]([C@@H](C)O)C(=O)N1)[C@@H](C)O)C(=O)N[C@@H](C)C(=O)N[C@@H](CC(=O)O)C(=O)N[C@@H](Cc1ccccc1)C(=O)N[C@@H](CC(C)C)C(=O)N[C@@H](CCCNC(=N)N)C(=O)N[C@@H](Cc1c[nH]cn1)C(=O)N[C@@H](CO)C(=O)N[C@@H](CO)C(=O)N1CCC[C@H]1C(=O)N[C@@H](CC(N)=O)C(=O)N[C@@H](Cc1ccccc1)C(=O)NCC(=O)N[C@@H](C)C(=O)N1CCC[C@H]1C(=O)N[C@@H](CC(C)C)C(=O)N[C@@H](CO)C(=O)N[C@@H](CO)C(=O)N[C@H](C(=O)N[C@@H](CC(N)=O)C(=O)N[C@H](C(=O)NCC(=O)N[C@@H](CO)C(=O)N[C@@H](CC(=O)O)C(=O)N[C@H](C(=O)N[C@@H](Cc1ccc(O)cc1)C(N)=O)[C@@H](C)O)C(C)C)[C@@H](C)O
notes: Synthetic analogue; also called compound 1

IC50 [1]: 19.5 nM
Ratio hCT/hAmylin binding [2]: 17.3
B6: N^ε1-[(4S)-4-carboxy-4-[[(4S)-4-carboxy-4-(19-carboxynonadecanoylamino)butanoyl]amino]butanoyl]-[Asp14,Arg17,Pro22,Pro26,Asp35]-h-amylin (peptide)
peptide: K([γGlu-γGlu-C20 diacid])CNTATCATQRLADFLRHSSNPFGAPLSSTNVGSDTY-NH2
modifications: disulfide 2-7; N-terminus assumed
SMILES: CC(C)C[C@H](NC(=O)[C@H](CCCNC(=N)N)NC(=O)[C@H](CCC(N)=O)NC(=O)[C@@H](NC(=O)[C@H](C)NC(=O)[C@@H]1CSSC[C@H](NC(=O)[C@@H](N)CCCCNC(=O)CC[C@H](NC(=O)CC[C@H](NC(=O)CCCCCCCCCCCCCCCCCCC(=O)O)C(=O)O)C(=O)O)C(=O)N[C@@H](CC(N)=O)C(=O)N[C@@H]([C@@H](C)O)C(=O)N[C@@H](C)C(=O)N[C@@H]([C@@H](C)O)C(=O)N1)[C@@H](C)O)C(=O)N[C@@H](C)C(=O)N[C@@H](CC(=O)O)C(=O)N[C@@H](Cc1ccccc1)C(=O)N[C@@H](CC(C)C)C(=O)N[C@@H](CCCNC(=N)N)C(=O)N[C@@H](Cc1c[nH]cn1)C(=O)N[C@@H](CO)C(=O)N[C@@H](CO)C(=O)N[C@@H](CC(N)=O)C(=O)N1CCC[C@H]1C(=O)N[C@@H](Cc1ccccc1)C(=O)NCC(=O)N[C@@H](C)C(=O)N1CCC[C@H]1C(=O)N[C@@H](CC(C)C)C(=O)N[C@@H](CO)C(=O)N[C@@H](CO)C(=O)N[C@H](C(=O)N[C@@H](CC(N)=O)C(=O)N[C@H](C(=O)NCC(=O)N[C@@H](CO)C(=O)N[C@@H](CC(=O)O)C(=O)N[C@H](C(=O)N[C@@H](Cc1ccc(O)cc1)C(N)=O)[C@@H](C)O)C(C)C)[C@@H](C)O
notes: Synthetic analogue; also called compound 3

Source: US20140087995A1 (published 2014)
